These results are taken from publication PMC8818087 (Nature cancer, 2021).

The target of experiment [1] is T1, TC-SND1 (16-339aa) (UniProt Q7KZF4 16-339, FlAsH-EDT2 labelling reagent on the tetracysteine tag).
T1 sequence: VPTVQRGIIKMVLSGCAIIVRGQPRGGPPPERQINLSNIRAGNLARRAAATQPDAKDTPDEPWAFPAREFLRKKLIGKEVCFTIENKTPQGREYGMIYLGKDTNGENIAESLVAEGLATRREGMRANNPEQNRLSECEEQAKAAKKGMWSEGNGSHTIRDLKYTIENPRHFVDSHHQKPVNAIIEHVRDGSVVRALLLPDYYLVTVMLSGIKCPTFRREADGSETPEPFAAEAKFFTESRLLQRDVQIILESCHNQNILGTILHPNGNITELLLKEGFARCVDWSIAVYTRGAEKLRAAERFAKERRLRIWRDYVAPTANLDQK
Description: FRET or BRET. Background: Bioluminescence resonance energy transfer reports proximity on the nanometre scale.

For experiment [2], the target named is T2, purified SND1 (16-339aa) protein (UniProt Q7KZF4 16-339).
T2 sequence: T1 sequence
Description: MST.

B1: wild type MTDH (MTDH-WT) minimal peptide (peptide)
peptide: PNSDWNAPAEEWGNW
Regarding B1, the binding result in experiment [1] and in experiment [2] was “binds” each time.

B2: CFP-MTDH (386-407aa) (domain or fragment)
chain: SSADPNSDWNAPAEEWGNWVDE
Consider B2, for which, in experiment [1], the binding result is reported as “binds”.
